From US20200157236A1 (CELLDEX THERAPEUTICS, published 2020)

What was measured:
[1] = molecular target: T1, human ALK on the surface of NB1 cells (human, UniProt Q9UM73 21-1620); assay: flow cytometry titration on NB1 cells, steady state
T1 construct: ALK of NB1 cells; also called cell surface hALK; NB1 (human)
Protocol: KD was determined by flow cytometry. Titration of each antibody on NB1 cells for 2-4 hours at 4° C. was followed by incubation with a fluorescently-labeled secondary antibody. The normalized mean fluorescent intensity […] shown as “% Max binding” was plotted as a function of antibody concentration.
Flow cytometry was utilized to measure the affinity at steady state (KD) with which different ALK antibodies bind to ALK on the surface of NB1 cells (FIG. 3). Titration of each antibody on NB1 cells for 2-4 hours at 4° C. was followed by incubation with a fluorescently-labeled secondary antibody. The normalized mean fluorescent intensity (MFI) shown as “% Max binding” was plotted as a function of antibody concentration. The data were fit to a one site binding isotherm using GraphPad Prism, from which affinity values were derived.

[2] = molecular target: T2, murine ALK (Table 18, 'mouse ALK binding') (mouse, UniProt P97793 19-1042, limits assumed); assay: ELISA on purified mouse ALK or flow cytometry on Neuro-2a cells
T2 construct: either purified mouse ALK antigen coated in ELISA or endogenous ALK on Neuro-2a cells
Protocol: Purified mAbs were evaluated for their ability to bind murine ALK by solid-state ELISA, or flow cytometry on Neuro-2a cells that express low levels of endogenous murine ALK.
Luminescence data were plotted as a function of the log-transformed anti-ALK antibody concentration and fit to a 4-parameter non-linear regression equation.
Alternatively, Neuro-2a cells were incubated with 10-100 nM of anti-ALK antibodies, followed by a fluorescently-labeled secondary antibody. Mean fluorescence intensity (MFI) of live-gated cells treated with anti-ALK antibodies was divided by background, determined using the secondary antibody alone.

[3] = molecular target: T3, purified ALK protein (BLitz, Table 20) (Homo sapiens (Human), UniProt Q9UM73 19-1038, limits assumed); assay: BLI (BLitz), mAb on Protein A tip, purified ALK in solution
T3 construct: also called purified ALK proteins
How it was run: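 Humanized anti-ALK mAbs loaded at 0.5 mg/mL on Protein A tips; after stable baseline, purified ALK protein at 70 μg/mL added. Kinetic traces fit to a single binding site model to give monovalent KD.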

[4] = molecular target: rat ALK, purified (rALK) (rat, UniProt P97793 19-1038 (mouse entry), limits assumed); assay: BLI (BLitz), estimated monovalent affinity, single dose kinetics
Protocol: (§1) Kinetic measurements of the monovalent affinity of the 96 humanized ALK antibody variants (Ab351-Ab446) were collected. Affinity ranking was performed using a BLitz® System (ForteBio, Menlo Park, Calif.). Humanized anti-ALK antibodies were immobilized at 0.5 mg/mL using Protein A tips. Once baseline stability was ensured, purified ALK proteins at 70 μg/mL were added. The resulting kinetic data were fit to a single binding site equation, from which the quoted monovalent KD values were derived.
(§2) KD values for both NB1 (human) cells and Neuro2a (mouse) cells were also determined.

[5] = molecular target: human ALK, purified (hALK) (human, UniProt Q9UM73 19-1038, limits assumed); assay: as above
Protocol: as §1, §2

[6] = molecular target: mouse ALK, purified (mALK) (mouse, UniProt P97793 19-1042); assay: as above
Protocol: as §1, §2

T1 sequence (Q9UM73 21-1620): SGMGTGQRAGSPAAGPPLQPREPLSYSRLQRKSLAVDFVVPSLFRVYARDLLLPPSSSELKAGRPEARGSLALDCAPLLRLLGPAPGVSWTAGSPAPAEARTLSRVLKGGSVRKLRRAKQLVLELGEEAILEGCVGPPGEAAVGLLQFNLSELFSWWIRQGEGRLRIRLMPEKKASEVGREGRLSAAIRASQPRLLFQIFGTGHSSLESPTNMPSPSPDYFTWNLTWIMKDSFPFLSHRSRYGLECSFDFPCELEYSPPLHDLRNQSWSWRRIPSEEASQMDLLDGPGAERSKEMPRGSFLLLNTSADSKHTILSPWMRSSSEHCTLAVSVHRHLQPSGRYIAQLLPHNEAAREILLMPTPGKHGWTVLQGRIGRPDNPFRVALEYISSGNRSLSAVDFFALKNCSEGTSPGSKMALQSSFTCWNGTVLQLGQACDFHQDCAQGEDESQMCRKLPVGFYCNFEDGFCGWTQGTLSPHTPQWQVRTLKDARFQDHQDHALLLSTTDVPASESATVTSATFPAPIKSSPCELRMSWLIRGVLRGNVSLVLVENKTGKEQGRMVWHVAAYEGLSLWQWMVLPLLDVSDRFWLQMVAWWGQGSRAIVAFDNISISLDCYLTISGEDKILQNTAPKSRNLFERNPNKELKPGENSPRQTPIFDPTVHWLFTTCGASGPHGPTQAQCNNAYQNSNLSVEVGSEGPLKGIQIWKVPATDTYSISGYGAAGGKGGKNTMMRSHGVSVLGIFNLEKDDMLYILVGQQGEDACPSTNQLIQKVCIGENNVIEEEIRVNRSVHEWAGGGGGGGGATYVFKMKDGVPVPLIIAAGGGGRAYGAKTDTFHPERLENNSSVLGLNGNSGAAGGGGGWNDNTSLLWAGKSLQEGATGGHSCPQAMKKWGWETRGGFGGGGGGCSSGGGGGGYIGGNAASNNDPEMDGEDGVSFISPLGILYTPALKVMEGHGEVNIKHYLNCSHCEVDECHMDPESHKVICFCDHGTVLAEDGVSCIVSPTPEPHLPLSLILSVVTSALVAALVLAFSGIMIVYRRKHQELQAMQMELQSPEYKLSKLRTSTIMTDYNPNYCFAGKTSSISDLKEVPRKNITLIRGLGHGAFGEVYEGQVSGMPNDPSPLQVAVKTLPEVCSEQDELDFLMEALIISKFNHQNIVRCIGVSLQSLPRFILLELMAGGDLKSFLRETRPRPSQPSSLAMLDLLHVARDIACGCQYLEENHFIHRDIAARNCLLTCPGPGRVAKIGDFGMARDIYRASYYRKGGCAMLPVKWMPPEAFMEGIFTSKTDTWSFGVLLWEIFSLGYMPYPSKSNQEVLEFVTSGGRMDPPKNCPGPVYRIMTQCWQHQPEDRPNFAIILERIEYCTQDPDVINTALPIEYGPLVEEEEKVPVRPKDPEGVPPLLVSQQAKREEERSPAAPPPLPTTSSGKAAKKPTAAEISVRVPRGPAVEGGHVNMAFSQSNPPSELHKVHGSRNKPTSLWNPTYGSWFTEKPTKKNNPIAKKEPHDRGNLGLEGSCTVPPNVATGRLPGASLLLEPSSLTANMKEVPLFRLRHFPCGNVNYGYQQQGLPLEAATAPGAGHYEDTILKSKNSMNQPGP
Sequence of mouse ALK, purified (mALK) (P97793 19-1042 limits assumed): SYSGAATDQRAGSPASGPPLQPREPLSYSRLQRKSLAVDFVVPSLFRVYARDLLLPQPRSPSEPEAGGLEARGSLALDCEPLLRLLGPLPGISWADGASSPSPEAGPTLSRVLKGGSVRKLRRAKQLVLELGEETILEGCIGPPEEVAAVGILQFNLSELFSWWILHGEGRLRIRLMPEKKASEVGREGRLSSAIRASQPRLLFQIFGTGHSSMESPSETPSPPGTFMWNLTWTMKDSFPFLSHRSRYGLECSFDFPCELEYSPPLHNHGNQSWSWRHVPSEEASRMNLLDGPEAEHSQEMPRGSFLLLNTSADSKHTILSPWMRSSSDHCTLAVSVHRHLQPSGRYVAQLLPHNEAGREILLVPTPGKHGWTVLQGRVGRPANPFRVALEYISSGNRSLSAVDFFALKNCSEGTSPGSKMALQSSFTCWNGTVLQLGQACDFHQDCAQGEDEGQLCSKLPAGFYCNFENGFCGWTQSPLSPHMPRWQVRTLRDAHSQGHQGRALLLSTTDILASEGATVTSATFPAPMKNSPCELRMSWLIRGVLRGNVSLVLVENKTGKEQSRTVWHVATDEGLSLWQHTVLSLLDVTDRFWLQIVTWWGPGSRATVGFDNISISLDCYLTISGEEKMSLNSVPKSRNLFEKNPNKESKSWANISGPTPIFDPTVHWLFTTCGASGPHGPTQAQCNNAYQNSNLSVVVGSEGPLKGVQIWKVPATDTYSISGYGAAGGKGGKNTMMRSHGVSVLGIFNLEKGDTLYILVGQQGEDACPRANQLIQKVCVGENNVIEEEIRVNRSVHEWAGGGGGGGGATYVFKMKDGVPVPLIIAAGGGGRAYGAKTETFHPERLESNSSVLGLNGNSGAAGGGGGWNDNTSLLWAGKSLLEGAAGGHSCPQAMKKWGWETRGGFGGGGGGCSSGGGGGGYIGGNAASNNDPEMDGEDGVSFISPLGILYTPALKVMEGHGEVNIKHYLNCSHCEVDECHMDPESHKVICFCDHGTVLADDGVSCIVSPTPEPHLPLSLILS
Sequence of rat ALK, purified (rALK) (P97793 other isoform, or with tags, fused parts or gaps limits assumed): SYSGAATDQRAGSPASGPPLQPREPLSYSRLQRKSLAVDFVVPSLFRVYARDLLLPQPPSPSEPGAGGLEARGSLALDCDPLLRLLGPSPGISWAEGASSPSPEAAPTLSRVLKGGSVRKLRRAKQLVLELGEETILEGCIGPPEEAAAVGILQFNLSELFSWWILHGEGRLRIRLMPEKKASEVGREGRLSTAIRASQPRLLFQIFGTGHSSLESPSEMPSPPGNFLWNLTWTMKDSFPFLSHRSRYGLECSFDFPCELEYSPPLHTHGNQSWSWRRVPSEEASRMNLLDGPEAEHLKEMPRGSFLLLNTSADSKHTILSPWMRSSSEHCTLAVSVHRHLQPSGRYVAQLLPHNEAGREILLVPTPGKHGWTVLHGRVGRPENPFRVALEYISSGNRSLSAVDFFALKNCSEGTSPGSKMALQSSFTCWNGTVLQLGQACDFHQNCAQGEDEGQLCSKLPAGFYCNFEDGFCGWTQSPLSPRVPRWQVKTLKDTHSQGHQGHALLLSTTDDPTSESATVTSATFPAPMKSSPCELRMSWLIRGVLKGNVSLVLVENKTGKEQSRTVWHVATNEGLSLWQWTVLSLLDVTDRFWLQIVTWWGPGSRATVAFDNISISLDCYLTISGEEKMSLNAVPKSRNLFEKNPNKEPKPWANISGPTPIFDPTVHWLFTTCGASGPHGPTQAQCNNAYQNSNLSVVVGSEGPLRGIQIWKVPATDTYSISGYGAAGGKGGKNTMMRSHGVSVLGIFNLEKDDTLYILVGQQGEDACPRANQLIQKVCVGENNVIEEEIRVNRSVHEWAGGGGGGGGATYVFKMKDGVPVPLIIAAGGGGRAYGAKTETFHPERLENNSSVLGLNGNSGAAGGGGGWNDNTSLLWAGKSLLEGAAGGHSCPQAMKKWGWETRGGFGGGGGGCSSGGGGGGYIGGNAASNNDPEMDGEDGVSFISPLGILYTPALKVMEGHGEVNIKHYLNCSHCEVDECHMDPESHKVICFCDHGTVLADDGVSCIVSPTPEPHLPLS
Sequence of human ALK, purified (hALK) (Q9UM73 other isoform, or with tags, fused parts or gaps limits assumed): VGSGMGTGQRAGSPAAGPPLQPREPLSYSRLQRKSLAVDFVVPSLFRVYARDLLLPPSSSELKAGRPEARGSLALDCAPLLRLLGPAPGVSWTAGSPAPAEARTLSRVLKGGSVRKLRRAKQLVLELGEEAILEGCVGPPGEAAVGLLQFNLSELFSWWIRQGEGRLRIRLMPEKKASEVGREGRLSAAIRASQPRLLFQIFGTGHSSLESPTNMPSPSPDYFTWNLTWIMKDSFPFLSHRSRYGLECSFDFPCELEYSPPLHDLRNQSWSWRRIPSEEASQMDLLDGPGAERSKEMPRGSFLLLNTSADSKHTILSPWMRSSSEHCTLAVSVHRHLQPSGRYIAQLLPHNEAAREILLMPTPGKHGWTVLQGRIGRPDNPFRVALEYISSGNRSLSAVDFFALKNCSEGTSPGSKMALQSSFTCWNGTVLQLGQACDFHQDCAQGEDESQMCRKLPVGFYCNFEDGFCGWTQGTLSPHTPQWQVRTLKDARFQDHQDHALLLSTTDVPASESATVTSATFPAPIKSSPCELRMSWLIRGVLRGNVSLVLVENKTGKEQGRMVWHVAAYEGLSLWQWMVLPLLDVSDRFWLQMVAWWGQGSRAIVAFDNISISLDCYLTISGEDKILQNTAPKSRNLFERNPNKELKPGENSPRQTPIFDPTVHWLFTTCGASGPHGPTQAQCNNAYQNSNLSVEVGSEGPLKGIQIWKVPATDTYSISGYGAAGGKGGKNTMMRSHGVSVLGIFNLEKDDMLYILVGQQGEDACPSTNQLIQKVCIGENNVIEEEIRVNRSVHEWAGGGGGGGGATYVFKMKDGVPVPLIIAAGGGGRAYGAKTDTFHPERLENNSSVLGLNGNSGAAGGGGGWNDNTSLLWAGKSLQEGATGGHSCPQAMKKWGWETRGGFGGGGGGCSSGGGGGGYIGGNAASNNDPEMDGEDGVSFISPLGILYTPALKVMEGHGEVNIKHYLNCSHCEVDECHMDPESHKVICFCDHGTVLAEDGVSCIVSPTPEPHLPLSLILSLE
T2 sequence (P97793 19-1042 limits assumed): as the sequence (P97793 19-1042 limits assumed) above

B1: Ab332 (antibody, V domains shown)
VH: EVQLQQSGPELVKPGTSVKISCKASGYTFTDYYMNWMKQSHGKSLEWIGDINPNNGVTSYNQKFKGKATLTVDKSSSTAYMELRSLTSEDSAVYYCAREDYGSNYFDYWGQGTTLTVSS
VL: DIVLTQSPASLAVSLGQRATISCKASQSVDYDGDSYMNWYQQKPGQPPKLLIYAASNLESGIPARLSGSGSGTDFTLNIHPVEEEDAATYYCQQSNEDPPTFGGGTKLEIRR
notes: rodent hybridoma mAb
Question: Which Kd [1] does the source give for B1 here?
Answer: The Kd was 1.55 nM.

B2: Ab331 (antibody, V domains shown)
VH: EVQVVETGGGVVQPGKSLEITCATSGLTFSTAWMYWVRQSSDRRLEWIARIKDKSNNFASDYVESVRGRFTISRDDSRSSVYLQMNNLKEEDTATYYCTTSYGYAWGQGVMVTVSS
VL: DIQMTQSPSSMSASLGDRITITCQASQDIGNYLIWFQQKPGKSPRPLIYYATNLANGVPSRFSGSRSGSEYSLTITSLESEDMADYHCLQYKQHLTFGSGTKLEIER
notes: rodent hybridoma mAb
Question: With B2 as the binder, how does the Kd [1] read?
Answer: The Kd was 2.5 nM.

Question: Does B2 bind [2]?
Answer: Result: no binding

B3: Ab352 (antibody, V domains shown)
VH: EVQLVQSGPEVKKPGTSVKLSCKASGYTFTSYWMHWVRQARGQRLEWIGYIKPSSGYTKYNQKFKDRATLTADKSTSTAYMELSSLRSEDTAVYYCARDYYGSSSWFAYWGQGTLVTVSS
VL: EIVMTQSPAFLSVTPGEKVTITCKASQNVGTNVAWYQQKPDQAPKALIYSASYRYSGVPSRFSGSGSGTDFTLTISSLEAEDAATYYCQQYNSYPYMYTFGQGTKLEIK
notes: humanized
Question: How did the Kd [3] turn out when B3 was run?
Answer: The Kd was 77.2 nM.

Question: What about the Kd [4] of the same binder?
Answer: Its Kd is 24 nM.

Question: What about the Kd [5] of the same binder?
Answer: The Kd was 105 nM.

Question: What about the Kd [6] of the same binder?
Answer: The Kd was 205 nM.

B4: Ab400 (antibody, V domains shown)
VH: EVQLVQSGPEVKKPGTSVKLSCKASGYTFTSYWMHWVRQARGQRLEWIGYIKPSSGYTKYNQKFKDRATLTADKSTSTAYMELSSLRSEDTAVYYCARDYYGSSSWFAYWGQGTLVTVSS
VL: EIVMTQSQATMSTSVGERATLSCKASQNVGTNVAWYQQKPGQSPKALIYSASYRYSGVPARFSGSGSGTDFTLTISSVEPEDFAVYYCQQYNSYPYMYTFGQGTKLEIK
notes: humanized
Question: With B4 as the binder, how does the Kd [4] read?
Answer: The Kd was 18 nM.

B5: Ab355 (antibody, V domains shown)
VH: QVQLVQSGAEVAKPGASVKLSCKASGYTFTSYWMHWVKQAPGQGLEWIGYIKPSSGYTKYNQKFKDKATLTADKSTSTAYMELRSLRSDDTAVYYCARDYYGSSSWFAYWGQGTLVTVSS
VL: EIVMTQSPAFLSVTPGEKVTITCKASQNVGTNVAWYQQKPDQAPKALIYSASYRYSGVPSRFSGSGSGTDFTLTISSLEAEDAATYYCQQYNSYPYMYTFGQGTKLEIK
notes: humanized
Question: Which results are given for B5?
Answer: Kd [3]: 86.5 nM; Kd [4]: 31 nM; Kd [5]: 103 nM; Kd [6]: 150 nM

B6: Ab403 (antibody, V domains shown)
VH: QVQLVQSGAEVAKPGASVKLSCKASGYTFTSYWMHWVKQAPGQGLEWIGYIKPSSGYTKYNQKFKDKATLTADKSTSTAYMELRSLRSDDTAVYYCARDYYGSSSWFAYWGQGTLVTVSS
VL: EIVMTQSQATMSTSVGERATLSCKASQNVGTNVAWYQQKPGQSPKALIYSASYRYSGVPARFSGSGSGTDFTLTISSVEPEDFAVYYCQQYNSYPYMYTFGQGTKLEIK
notes: humanized
Question: How did the Kd [4] turn out when B6 was run?
Answer: The Kd was 22 nM.

B7: Ab402 (antibody, V domains shown)
VH: EVQLVQSGAEVKKPGTSVKLSCKASGYTFTSYWMHWVRQARGQRLEWIGYIKPSSGYTKYAQKFQERVTLTADKSTSTAYMELSSLRSEDTAVYYCARDYYGSSSWFAYWGQGTLVTVSS
VL: EIVMTQSQATMSTSVGERATLSCKASQNVGTNVAWYQQKPGQSPKALIYSASYRYSGVPARFSGSGSGTDFTLTISSVEPEDFAVYYCQQYNSYPYMYTFGQGTKLEIK
notes: humanized
Question: How did the Kd [4] turn out when B7 was run?
Answer: The Kd was 24 nM.

B8: Ab326 (antibody, V domains shown)
VH: QVQLQQSGAELAKPGASVKLSCKASGYTFTSYWMHWVKQRPGQGLEWIGYIKPSSGYTKYNQKFKDKATLTADKSSSTAYMQLSSLTYEDSAVYYCARDYYGSSSWFAYWGQGTLVTVSA
VL: DIVMTQSQRFMSTSVGDRVSVTCKASQNVGTNVAWYQQKPGQSPKALIYSASYRYSGVPDRFTGSGSGTDFTLTISNVQSEDLAEYFCQQYNSYPYMYTFGGGTKLEIKR
notes: rodent hybridoma mAb
Question: How did the Kd [1] turn out when B8 was run?
Answer: The Kd was 0.35 nM.

Question: And the Kd [4]?
Answer: Its Kd is 35 nM.

Question: And the Kd [5]?
Answer: Its Kd is 69 nM.

Question: What about the Kd [6] of the same binder?
Answer: Its Kd is 120 nM.

B9: Ab328 (antibody, V domains shown)
VH: QVQLQQSGAELAKPGASVKLSCKASGYTFTSYWMHWVKQRPGQGLEWIGYINPSSGYTKYNQKFKDKATLTADKSSSTAYMQLSSLTFEDSAVYYCARDYYGSSSWFAYWGQGTLVTVSA
VL: DIVMTQSQKFMSTSVGDRVSVTCKASQNVGTNVAWYQQKPGHSPKALIYSASYRYSGVPDRFTGSGSGTDFTLTISNVQSEDLAEYFCQRYNSYPYMFTFGGGTKLEIKR
notes: rodent hybridoma mAb
Question: With B9 as the binder, how does the Kd [1] read?
Answer: Its Kd is 0.5 nM.

B10: Ab322 (antibody, V domains shown)
VH: QVQLQQSGAELAKPGASVKLSCKASGYTFTNYWMHWVKQRPGQGLEWIGYINPSSGYTKYNQKFKDKATLTADKSSSTAYMQLSSLTYEDSAVYYCARDYYGSSSWFAYWGQGTLVTVSA
VL: DIVMTQSQRFMSTSVGDRVSVTCKASQNVGTNVAWYQQKPGQSPKALIYSASYRYSGVPDRFTGSGSGTDFTLTVSNVQSEDLAEYFCQQYNSYPYMYTFGGGTKLEIKR
notes: rodent hybridoma mAb
Question: B10 was tested. Which Kd [1] did it give?
Answer: Its Kd is 0.5 nM.

Question: Does B10 bind [2]?
Answer: Result: no binding

B11: Ab325 (antibody, V domains shown)
VH: QVQLQQSGAELVKPGASVKISCKASGYAFSSYWMNWVKQRPGKGLEWIGQIYPGDGDTNYNGKFKGKATLTADKSSSTAYMQLSSLTSEDSAVYFCARWYYGSYYAMDYWGQGTSVTVSS
VL: DIQMTQTTSSLSASLGDRVTISCRASQDISNYLNWYQQKPDGTVKLLIYYTSRLHSGVPSRFSGSGSGTDYSLTISNLEQEDIATYFCQQGNTLPRTFGGGTKLEIKR
notes: rodent hybridoma mAb
Question: B11 was tested. Which Kd [1] did it give?
Answer: Its Kd is 0.1 nM.

B12: Ab323 (antibody, V domains shown)
VH: QVQLQQSGAELVKPGASVKISCKTSGYTFSNYWMNWVKQRPGKGLEWIGQIFPGDADANYNGKFKGKATLTADKSSSAAFMQLSSLTSEDSAVYFCARFSYDGAFAYWGQGTLVTVS
VL: DIVMTQSHKFMSTSVGDRVSITCKASQDVSTAVAWYQQKPGQSPKPLIYWASTRHTGVPDRFTGSGSGTDYTLTISSVQTEDLALYYCQQHYSTPRTFGGGTKLEIKR
notes: rodent hybridoma mAb
Question: B12 was tested. Which Kd [1] did it give?
Answer: The Kd was 0.08 nM.

B13: Ab327 (antibody, V domains shown)
VH: DVKLVESGEGLVKPGGSLKLSCAASGFTFSSYAMSWVRQTPEKRLEWVTYISSGGDYIYYADTVKGRFTISRDNARNTLYLQMSSLKSEDTAMYYCTRERIWLRRFFDVWGTGTTVTVSS
VL: DIVMTQSQKFMSTSVGDRVSITCKASQNVGTAVAWYQLKPGQSPKLLIYSASNRFTGVPDRFTGSGSGTDFTLTISNMQSEDLADYFCQQYSSYPLTFGSGTKLEIKR
notes: rodent hybridoma mAb
Question: For B13, which Kd [1] is on record?
Answer: Its Kd is 0.4 nM.
